The numbers were not newly measured in PMC12990809, which cites them from elsewhere.

What all share (test): pulldown
Conditions in all cases: 20 nM protein, 1.5 uM RNA pool; 20 mM HEPES pH 7.8, 70 mM KCl, 10 mM NaCl, 10% glycerol, 2 mM DTT, 0.1 ug/uL BSA; 30 min, 4 C (protocol of this paper; not …); cited from earlier work

For data set [1], the target named is T1, e_gw1.81.40.1 (Physcomitrella patens) (UniProt A0A2K1J988).
T1 sequence: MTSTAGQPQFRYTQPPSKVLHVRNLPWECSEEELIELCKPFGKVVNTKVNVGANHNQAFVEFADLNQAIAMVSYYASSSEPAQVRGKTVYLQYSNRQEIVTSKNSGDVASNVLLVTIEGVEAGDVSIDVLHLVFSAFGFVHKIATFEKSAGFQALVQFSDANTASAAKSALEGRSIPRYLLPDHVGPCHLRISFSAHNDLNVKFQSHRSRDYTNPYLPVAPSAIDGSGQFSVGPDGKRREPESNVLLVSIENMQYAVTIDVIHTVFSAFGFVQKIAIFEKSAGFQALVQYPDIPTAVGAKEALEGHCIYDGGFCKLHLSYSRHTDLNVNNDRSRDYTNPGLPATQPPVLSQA

Data set [2] concerns the target T2, Thaps1841 (Thalassiosira pseudonana) (UniProt B8BS34).
T2 sequence: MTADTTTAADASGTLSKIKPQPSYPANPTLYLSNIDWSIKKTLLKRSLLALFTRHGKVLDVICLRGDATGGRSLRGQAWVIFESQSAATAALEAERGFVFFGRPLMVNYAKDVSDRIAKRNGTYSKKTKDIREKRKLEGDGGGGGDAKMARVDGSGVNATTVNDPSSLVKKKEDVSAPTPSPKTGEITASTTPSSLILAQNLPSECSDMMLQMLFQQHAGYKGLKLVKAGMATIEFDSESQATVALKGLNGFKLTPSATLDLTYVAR

For data set [3], the target named is T3, NCU08034 (Neurospora crassa) (UniProt Q7SAK7).
T3 sequence: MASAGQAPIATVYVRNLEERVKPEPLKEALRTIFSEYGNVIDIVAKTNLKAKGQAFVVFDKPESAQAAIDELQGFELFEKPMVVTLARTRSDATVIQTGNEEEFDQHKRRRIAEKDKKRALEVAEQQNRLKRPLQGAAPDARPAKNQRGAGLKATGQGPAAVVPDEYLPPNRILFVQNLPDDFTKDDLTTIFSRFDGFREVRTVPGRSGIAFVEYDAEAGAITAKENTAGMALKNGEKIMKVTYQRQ

Data set [4] deals with T4, RO3G_00049 (Rhizopus oryzae) (UniProt I1BGL5).
T4 sequence: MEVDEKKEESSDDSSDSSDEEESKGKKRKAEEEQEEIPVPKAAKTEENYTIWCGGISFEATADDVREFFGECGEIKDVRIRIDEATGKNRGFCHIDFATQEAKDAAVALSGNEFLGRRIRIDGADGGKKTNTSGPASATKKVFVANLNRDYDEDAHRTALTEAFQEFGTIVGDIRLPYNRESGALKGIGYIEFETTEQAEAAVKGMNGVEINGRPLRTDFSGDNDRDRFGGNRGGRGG

The target in data set [5] is T5, MAL8P1.40 (Plasmodium falciparum) (UniProt Q8IB66).
T5 sequence: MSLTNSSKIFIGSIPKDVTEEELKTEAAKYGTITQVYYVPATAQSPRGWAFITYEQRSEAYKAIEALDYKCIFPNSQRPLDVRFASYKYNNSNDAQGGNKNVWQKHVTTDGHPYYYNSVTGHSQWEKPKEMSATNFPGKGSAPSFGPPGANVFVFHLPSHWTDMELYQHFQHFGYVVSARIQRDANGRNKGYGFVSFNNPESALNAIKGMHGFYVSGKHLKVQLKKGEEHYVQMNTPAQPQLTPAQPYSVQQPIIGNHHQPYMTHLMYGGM

Data set [6] deals with T6, sf3b4 (Danio rerio) (UniProt A0ACM8Q308).
T6 sequence: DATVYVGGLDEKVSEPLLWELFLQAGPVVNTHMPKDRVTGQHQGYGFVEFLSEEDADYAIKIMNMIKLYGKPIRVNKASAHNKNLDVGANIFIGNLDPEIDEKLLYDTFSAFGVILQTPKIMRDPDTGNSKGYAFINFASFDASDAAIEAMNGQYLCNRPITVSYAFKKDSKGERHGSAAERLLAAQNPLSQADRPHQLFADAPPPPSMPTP

In data set [7] the target is T7, TVAG_302220 (Trichomonas vaginalis) (UniProt A2EGP7).
T7 sequence: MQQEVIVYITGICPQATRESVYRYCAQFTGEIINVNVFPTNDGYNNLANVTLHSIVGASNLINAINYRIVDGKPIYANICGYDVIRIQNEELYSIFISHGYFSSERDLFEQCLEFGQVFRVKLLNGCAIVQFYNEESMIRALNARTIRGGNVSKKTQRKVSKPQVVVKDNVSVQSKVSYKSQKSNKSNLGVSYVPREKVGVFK

Data set [8] addresses T8, Tb927.3.3930 N185S (Trypanosoma brucei) (UniProt Q57WC9).
T8 sequence: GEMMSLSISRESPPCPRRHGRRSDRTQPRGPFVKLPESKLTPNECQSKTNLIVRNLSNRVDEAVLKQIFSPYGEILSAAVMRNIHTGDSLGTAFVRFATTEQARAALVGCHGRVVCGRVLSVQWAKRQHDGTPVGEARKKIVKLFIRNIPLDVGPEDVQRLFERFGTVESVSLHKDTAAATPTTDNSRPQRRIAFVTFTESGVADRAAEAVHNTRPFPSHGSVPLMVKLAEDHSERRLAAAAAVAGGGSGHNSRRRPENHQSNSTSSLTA

Data set [9] concerns the target T9, LmjF.18.0180 (Leishmania major) (UniProt Q4QE24).
T9 sequence: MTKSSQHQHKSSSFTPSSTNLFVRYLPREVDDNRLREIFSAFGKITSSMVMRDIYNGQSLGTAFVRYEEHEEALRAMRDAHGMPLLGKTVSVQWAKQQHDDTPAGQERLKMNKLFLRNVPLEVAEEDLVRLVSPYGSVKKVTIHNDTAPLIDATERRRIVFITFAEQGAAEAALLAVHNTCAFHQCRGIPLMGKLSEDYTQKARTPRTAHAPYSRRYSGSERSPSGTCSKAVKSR

In data set [10] the target is T10, PFI1695c (Plasmodium falciparum) (UniProt Q8I2G9).
T10 sequence: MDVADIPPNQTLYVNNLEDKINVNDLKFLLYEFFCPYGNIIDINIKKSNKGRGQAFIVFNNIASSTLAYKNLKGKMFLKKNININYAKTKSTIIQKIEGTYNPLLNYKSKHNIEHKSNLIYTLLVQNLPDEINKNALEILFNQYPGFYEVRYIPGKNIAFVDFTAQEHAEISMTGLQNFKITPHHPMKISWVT

Data set [11] deals with Pcbp3 (Mus musculus) (UniProt P57722).
Chain of Pcbp3 (Mus musculus) (P57722 33-371): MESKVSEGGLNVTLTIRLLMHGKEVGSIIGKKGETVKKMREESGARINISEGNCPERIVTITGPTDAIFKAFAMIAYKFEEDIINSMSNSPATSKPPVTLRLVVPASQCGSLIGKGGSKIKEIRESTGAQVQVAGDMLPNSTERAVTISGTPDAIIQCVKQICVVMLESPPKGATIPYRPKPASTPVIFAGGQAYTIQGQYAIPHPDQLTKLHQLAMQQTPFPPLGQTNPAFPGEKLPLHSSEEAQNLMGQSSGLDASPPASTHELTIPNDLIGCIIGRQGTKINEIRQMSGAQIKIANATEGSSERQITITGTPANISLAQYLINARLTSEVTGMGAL
Data set [12] addresses T11, Tb09.211.0560 (Trypanosoma brucei) (UniProt Q38EA2).
T11 sequence: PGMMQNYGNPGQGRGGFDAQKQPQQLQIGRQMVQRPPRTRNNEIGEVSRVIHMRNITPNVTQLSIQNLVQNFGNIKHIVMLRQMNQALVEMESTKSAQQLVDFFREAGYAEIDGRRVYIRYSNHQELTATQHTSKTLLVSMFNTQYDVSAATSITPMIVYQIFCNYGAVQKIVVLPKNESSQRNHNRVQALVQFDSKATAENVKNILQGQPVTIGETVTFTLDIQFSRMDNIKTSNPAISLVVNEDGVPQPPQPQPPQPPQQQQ

Data set [13] has as its target T12, PF10_0068 (Plasmodium falciparum) (UniProt Q8IJX3).
T12 sequence: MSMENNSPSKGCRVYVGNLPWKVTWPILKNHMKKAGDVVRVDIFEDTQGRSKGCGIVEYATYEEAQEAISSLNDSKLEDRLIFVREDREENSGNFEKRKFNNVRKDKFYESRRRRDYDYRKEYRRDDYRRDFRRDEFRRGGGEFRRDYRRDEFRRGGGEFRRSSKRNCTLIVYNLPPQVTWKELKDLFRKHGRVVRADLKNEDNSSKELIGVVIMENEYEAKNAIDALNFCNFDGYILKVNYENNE

Data set [14] has as its target T13, LmjF.32.0750 (Leishmania major) (UniProt Q4Q5K7).
T13 sequence: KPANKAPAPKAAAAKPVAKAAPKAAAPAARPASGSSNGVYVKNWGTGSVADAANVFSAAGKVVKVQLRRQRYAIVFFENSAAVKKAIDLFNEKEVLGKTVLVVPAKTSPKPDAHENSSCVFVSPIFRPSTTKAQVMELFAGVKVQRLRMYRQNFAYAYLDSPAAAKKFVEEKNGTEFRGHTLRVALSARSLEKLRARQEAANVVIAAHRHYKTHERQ

Data set [15] concerns the target T14, Tb927.8.6650 (Trypanosoma brucei) (UniProt Q57TU8).
T14 sequence: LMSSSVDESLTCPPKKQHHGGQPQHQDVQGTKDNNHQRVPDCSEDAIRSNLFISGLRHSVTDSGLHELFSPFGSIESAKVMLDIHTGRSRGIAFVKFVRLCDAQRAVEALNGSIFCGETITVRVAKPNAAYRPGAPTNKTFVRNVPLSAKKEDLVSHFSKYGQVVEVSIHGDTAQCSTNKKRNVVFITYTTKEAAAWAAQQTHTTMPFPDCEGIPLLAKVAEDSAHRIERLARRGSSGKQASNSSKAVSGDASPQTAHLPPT

For data set [16], the target named is T15, PF13_0315 (Plasmodium falciparum) (UniProt Q8IDB7).
T15 sequence: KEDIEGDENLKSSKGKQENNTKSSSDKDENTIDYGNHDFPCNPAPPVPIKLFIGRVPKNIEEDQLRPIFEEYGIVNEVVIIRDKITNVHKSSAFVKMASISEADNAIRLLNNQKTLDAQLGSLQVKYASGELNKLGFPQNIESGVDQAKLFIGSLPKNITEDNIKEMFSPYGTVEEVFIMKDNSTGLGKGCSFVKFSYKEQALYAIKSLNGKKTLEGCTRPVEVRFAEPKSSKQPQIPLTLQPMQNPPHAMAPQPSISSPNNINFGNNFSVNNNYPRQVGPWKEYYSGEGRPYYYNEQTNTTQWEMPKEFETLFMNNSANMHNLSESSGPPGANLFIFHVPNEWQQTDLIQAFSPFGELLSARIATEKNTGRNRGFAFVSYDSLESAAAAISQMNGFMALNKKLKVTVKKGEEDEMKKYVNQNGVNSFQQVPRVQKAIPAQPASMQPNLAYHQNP

The target of data set [17] is T16, Tb927.7.5380 (Trypanosoma brucei) (UniProt Q582F3).
T16 sequence: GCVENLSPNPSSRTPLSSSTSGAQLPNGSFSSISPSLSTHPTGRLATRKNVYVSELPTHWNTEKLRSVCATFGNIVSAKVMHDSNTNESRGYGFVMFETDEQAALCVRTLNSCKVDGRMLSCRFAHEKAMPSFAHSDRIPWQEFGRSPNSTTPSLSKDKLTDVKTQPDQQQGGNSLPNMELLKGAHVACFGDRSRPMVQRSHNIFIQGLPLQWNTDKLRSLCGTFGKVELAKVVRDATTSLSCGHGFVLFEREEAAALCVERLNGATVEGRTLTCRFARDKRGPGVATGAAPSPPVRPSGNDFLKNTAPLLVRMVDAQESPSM

For data set [18], the target named is T17, PFI1435w (Plasmodium falciparum) (UniProt C0H570).
T17 sequence: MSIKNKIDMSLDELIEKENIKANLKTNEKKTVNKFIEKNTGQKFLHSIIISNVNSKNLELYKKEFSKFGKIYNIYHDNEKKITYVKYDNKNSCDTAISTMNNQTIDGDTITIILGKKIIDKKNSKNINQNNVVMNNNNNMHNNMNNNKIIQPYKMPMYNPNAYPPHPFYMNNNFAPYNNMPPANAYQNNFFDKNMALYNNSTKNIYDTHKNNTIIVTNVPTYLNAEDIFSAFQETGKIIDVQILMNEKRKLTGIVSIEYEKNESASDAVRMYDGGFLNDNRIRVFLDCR

In the case of AACCUUU [RNAcompete motif RNCMPT00206], in data set [1], the binding signal (z-score (mean of top ten 7-mers)) was 6.39.
In the case of ACACGC [RNAcompete motif RNCMPT00225], in data set [2], the binding signal (z-score (mean of top ten 7-mers)) is 6.33.
Consider AGCACA [RNAcompete motif RNCMPT00209], for which the binding signal (z-score (mean of top ten 7-mers)) in [3] was 11.1.
For the sequence AGGGGAA [RNAcompete motif RNCMPT00205], in data set [4], the binding signal (z-score (mean of top ten 7-mers)) was 9.5.
Turning to AUACAUG [RNAcompete motif RNCMPT00197], the binding signal (z-score (mean of top ten 7-mers)) in data set [5] was 14.8.
Consider CAAAAG [RNAcompete motif RNCMPT00224], for which the binding signal (z-score (mean of top ten 7-mers)) in data set [6] was 28.4.
With CAAUAA [RNAcompete motif RNCMPT00226], in data set [7], the binding signal (z-score (mean of top ten 7-mers)) was 12.9.
Turning to CAUUGU [RNAcompete motif RNCMPT00216], the binding signal (z-score (mean of top ten 7-mers)) in data set [8] is 18.7.
With CAUUUU [RNAcompete motif RNCMPT00212], the binding signal (z-score (mean of top ten 7-mers)) in data set [9] was 30.2.
As for CCUGCAC [RNAcompete motif RNCMPT00203], the binding signal (z-score (mean of top ten 7-mers)) in data set [10] was 9.07.
On to CUUUCC [RNAcompete motif RNCMPT00215], for which the binding signal (z-score (mean of top ten 7-mers)) in [11] was 6.23.
In the case of CUUUCU [RNAcompete motif RNCMPT00220], the binding signal (z-score (mean of top ten 7-mers)) in data set [12] was 6.05.
For the sequence GGAGGA [RNAcompete motif RNCMPT00199], the binding signal (z-score (mean of top ten 7-mers)) in [13] was 8.55.
Consider UACACG [RNAcompete motif RNCMPT00223], for which the binding signal (z-score (mean of top ten 7-mers)) in data set [14] was 10.4.
Turning to UAUACU [RNAcompete motif RNCMPT00219], in data set [15], the binding signal (z-score (mean of top ten 7-mers)) was 15.8.
UUACAU [RNAcompete motif RNCMPT00200]: the binding signal (z-score (mean of top ten 7-mers)) in data set [16] is 7.45.
UUAUU [RNAcompete motif RNCMPT00218]: the binding signal (z-score (mean of top ten 7-mers)) in data set [17] was 7.15.
Take UUUUUU [RNAcompete motif RNCMPT00202]: the binding signal (z-score (mean of top ten 7-mers)) in [18] is 6.28.
